Test: soluble on expression in E. coli; label from the status in PepcDB or PDB records

| Sequence | soluble on expression in E. coli |
| --- | --- |
| MGSDKIHHHHHHMLDVHKDIKKIFHEEQVLAEAAARYGFSKDQVRFLADAENYVYECMKDNQPYILKITHTIRRSSDYMMGEMEWLRHLAIGGISVAKPLPSLNGKDVEAVPDGNGGSFLLRVYEKAPGQKVDESDWNETLFYELGRYTGSMHSLTKSYKLSNPAFKRAAWAEEEQLKLRKYVPEDQIKVFQQADSLMNELRRLPKSQDNYGLVHADLHHGNFNWDHGKITAFDFDDIGYNWFVNDISILLYNVLWYPVVPYDDKAAFTEEFMTHFMKGYWEENELDPAWLMIIPDFLRLRHMLIYGLLHQMFDLNTIGEEEKEMLAGFRRDIENGTPITAFDFSALV | not soluble |
| MVRMYEERTATFHSMNEGVIAIDNRLVITIFNEKAKQIFEVQGDLIGKVIWEVLKDSRLPEIVERNKAVYNEEIRVSGKVIMSSRIPIVMKKKVIGAVAIFQDRTEAAKMAEELTGVRNFVEALRVQNHEHMNKLHTIAGLIQLGKSEKALQLAFQASTEQENVTEFLHRSIQNDAAAGLLLSKIRRGRELGIAVHIDENSSLQQFPEHVDQHDIVVLLGNLIENAFGSFETVQSEDKRIDISIEQTDDILAILIEDNGCGIEPTHMPRLYDKGFTVNKTGGTGYGLYLVKQIIDKGSGTIEVDSHAGQGTSFSIVFPMKGE | not soluble |
| MSIIGRFKDIMSANINALLDKAENPEKMVDQYLRNMNSDLAKVKAETAAVMAEEQRAKREYHECQADMEKMESYAMKALQAGNESDARKFLERKTSLESKLSELQAANQIAATNAAQMRKMHDKLVSDIGELEARKNMIKAKWAVAKTQERMNKLGASVSSTSQSMSAFGRMEDKVNKALDQANAMAELNSAPQDDMADLSAKYDTGGSSQVDDELAALKAKMMLDKLEHHHHHH | not soluble |
| MAHHHHHHMSTIYNAVDASTLNDRCRTDLLDTVAQLGRHCETLPKKAVTTADAPLPSCTFNTTVSRSQKEINCSNEAALDKYIEEKGATRWRTTQALASTYFKDHKPKFHGALRTQDCFRDTRDITQLSSKEKDFVHRYAEAKMKKSIPREESDDVAKKVATEAYTEAFRKFKGRDPTEKELLEVERLYFAYADDGAVGVVQKPHFHGPHMHVSICNRKYVTCPNQVYRASLPAVRNARSRFPGPIPVWTSTKNLHAVVSNDTYRPGVHNVSKFGETSSK | not soluble |
| AIARENEAVKPTIQAVYLAAGLSSRFGGRIKCLQEVGRHGETLLELSVRQLCEAYPAISSLVFVVSEATHLPIHALIGEQFYGLPVYFCVQRVPAWRKRPLGTVDALLAAREHIHGPFIVLNGDSLYGVAALSLVCNHITAAKTACMPGYKLREVLPKEGRVNRAIVQTDERHRVLEIVEQYNIGFEDIEEGRYTGDELTSMNVFGFHDTSIFARADERFRRFLSELEALRDDHHLQQQQQSVKRCSTDENDVYAHKEYILSTMLNELLHDAQIELMVLSCNSIRTPLELTNPGDFAFVKNHLDLVGL | soluble |
| MSFFDKVKGAINSGRDELTRQVGRFKNKKFMQGTVAVCARIAVSSDGVSSEEKQKMMGFLRSSEELKVFDTNEVIEFFNKLVSSFDFDVEIGKGETMKYILALKDQPEAAQLALRVGIAVAKSDGNFDQDEKLASREIAIALGFDPAEFGL | not soluble |
| MGRVIFMGKTGCGKTTLCQALNNLEIKYKKTQAIELYDNAIDTPGEYMENRGYYTALIVTAADADIIALVYDCTSEENYIAPGFASMFCKEVIGIITKINLAKDKSEIEVAEERLNLAGVSKIFKVDTVDDVGIKELFNYLNKFLEHHHHHH | soluble |
| DIIITAGGKNITPAEIESRLKFSHYISDAVIVGDKRKFLTCLIMIDQENVEKFAQDRKVPFSNFASLCAAKEVRELIAAEVAQVNKEFARVEQIKDFRLIDVLLTAEDDELTATMKLKRSFVEKKHAHLIEDMYK | soluble |
| MTGQRDGASLHDALTDKQAAVLRAAFHAGYFEWPRESTAEDLAADMGVTAPTLHNHLRRAQQKLLEHHHHHH | not soluble |
| FVEAIHAAEERVWITSPYFIPDEAVTAALTLAVLRGVDVRLLLPSRPDHYVVYAASSLYAFDAVRAGVRVFRYEPGFLHQKVVLVDNDITAIGSANLDNRSFRLNFELMLLTVDSDFSSQVESMLTADFNLAREISVQ | not soluble |
| MDTQQIDVMVADASHEVYVDTILETIRNAAKVRGTGIAERTHEYVATKMKEGKAIIALCGDVFAGFTYIESWGNKQYVATSGLIVHPDFRGLGLAKRIKQASFQLARLRWPRAKIFSLTSGAAVMKMNTELGYVPVT | soluble |
| MGSDKIHHHHHHMIRSLWIAKTGLNAQQTNMDVISNNLANVSTNGFKRQRAVFEDLMYQTIRQPGAQSSEQTMLPSGLQLGTGVRPVSTERIHTQGTFSETGNSKDVAIKGQGFFQVQLPDGTTAYTRDGAFQLDGNGQLVTSSGYQVQPAITVPANATELNIGRDGIVSVKVQGQAATNQIGQLTLTTFINDSGLESMGENLYLETASSGAPNETNPGLNGAGLLYQKYVETSNVNVAEELVSMIQTQRAYEINSKAISSSDQMLQKLTQL | not soluble |
| MIRMETYPHNFEEKVGFDEIRRLLIGHCHSPMGSDRVIQMHALARHNEVSRLLAETEEMQIILREEDLFPDLRLADVREALNRIRPAGTYLEERELQDVATALRTIEALIRFFHVGEEEEGKDTPYPHLQTLLSEVIVFPDLEKRISSLFDRFGKMKDNASPELMNIRRELSSIEKNISRTLQGILRLAQSEGWVDQGVQPSVRDGRLVIPVAPAHKRKVRGIVHDESGTGKTVFIEPAEIVEANNRIRELEAAERREIIRILIEVCDALRPHIHDLIDCYEWIGLFDFISAKARLCGEWNAIRPILSKKPEIRWEKAVHPLLLRSLRAHGRDVIPLDISLTAPDKRILVISGPNAGGKSVCLKTVGLLQYMLQSGLPIPMSPDSTAGIFGKLFIDIGDEQSIEDDLSTYSSHLRNMKHFARHTDKNTLLLIDEFGGGTEPQIGGAIAEALLHRFNEQEGFGVVTTHYQNLKAYAEETPGLVNGAMLYDRHEMRPLFRLSIGRPGSSFAIEIARKIGLPEEVIAEATDKVGTGYIDMDKYLQDIVRDKRYWETKRTNIRKEEKRLEGAAAEYESRLESIKKERKQILDEARQQASVMLSQSSAQIEKTIRDIKEAQAEREKTRRARQELNDFRETINKEEIEKEERINREIEKIKRRKKRKQEKAASRSAETPVQPKLQEVPQPPVIQVGDTVRIKGQTAIGSIIDMNDREATIALGMIKTTVPIDRLEPAKPVKERKSEPVSGASARMIIDRIHEKRLDFKQDIDLRGMRVNEAVQAVMYFIDDAIQLGIPRVRILHGTGTGALRTVIREYLATVNGVRHFADEHVQFGGAGITVVELG | not soluble |
| MGSDKIHHHHHHMINRYLGDPPFESPERRNRLPERHKVKAGFSPTIDCAVLIAAAEKGFAADEGIELELFREQSARAVLAALGGDDIHIGHLPAPVPVGSAVGLDDLPADIVGVFTLSLGGSATAVSHGFYDELYREGMKLPDPAAFGRAMARVCAARRAAGKNPPVFAVEDIVSTPFYTLRYLLGSCGVLLGRDMEIIEALPKAMPALLESGKVDALCTAEPAGSAVVLGGAGRIVTTGALIWHNAPEKILAVKKGWAEENATLLEGLLRALYRAGEWCANDANIEELAGILAAPQYIDENGEFLLPALTGYISTSQRDMQRFQEFFVTSAKAANFPWQSQALWFFSQMLRWGEVPAERRLEPTMAEAARNAYRPDIFRKAMKPLFVPVPGANLKLEGTLKEPVHVGASRTGLVLGPDCFFDGRVFDPETLEMDDEI | not soluble |
| SNAMDMVTVTAKTVEEAVTKALIELQTTSDKLTYEIVEKGSAGFLGIGSKPAIIRAKRKETLQDKAIEFLEQVFDAMNMAVDISVEYNETEKEMNVNLKGDDMGILIGKRGQTLDSLQYLVSLVVNKSSSDYIRVKLDTENYRERRKETLETLAKNIAYKVKRTKRSVSLEPMNPYERRIIHAALQNDKYVVTRSDGEEPFRHVIISLKRENRRDRNDRSDRNEK | soluble |
| EDPGGITRTKGERVDATVDGLPDGVSPEDAAKFTSVLNKLIKDDPELKKSVEVKTLKAASKTKRTKEVVNWRGGGGFQVAHLSPACFDYDPALDRVMLTAAATGETLIESVAANLGFTLLHPDDDYVFDARRGNALLKVVEGVATPQIVDWLASQIQPGETIVLAATTVMDGVRQHLRKAVKGSRVVALPDDIFRYSEGGNK | not soluble |
| MGSDKIHHHHHHSDAGKDRRKKQKQKERQEDDDNNDEPAGGSEMGESGKAKDEKERTSVLEKQAGKKGDDESSSSEEDKEDEDEKKDNSTVIIREENEIIKAEKELDEEKVDQFRQSRVLRFTRSADEARVLPTDAAKFKRDTITQTLKSKELNDGVQLPLDKKPTATASTN | not soluble |

Source: the DeepSol protein solubility set
